Experimental data from article PMC3689955 (The Journal of Biological Chemistry, 2013).

Target: T1, Ligase IV (UniProt P49917 1-911)
T1 construct: DNA Ligase IV, the subunit of XL; also called DNA Ligase IV
T1 sequence (looked up): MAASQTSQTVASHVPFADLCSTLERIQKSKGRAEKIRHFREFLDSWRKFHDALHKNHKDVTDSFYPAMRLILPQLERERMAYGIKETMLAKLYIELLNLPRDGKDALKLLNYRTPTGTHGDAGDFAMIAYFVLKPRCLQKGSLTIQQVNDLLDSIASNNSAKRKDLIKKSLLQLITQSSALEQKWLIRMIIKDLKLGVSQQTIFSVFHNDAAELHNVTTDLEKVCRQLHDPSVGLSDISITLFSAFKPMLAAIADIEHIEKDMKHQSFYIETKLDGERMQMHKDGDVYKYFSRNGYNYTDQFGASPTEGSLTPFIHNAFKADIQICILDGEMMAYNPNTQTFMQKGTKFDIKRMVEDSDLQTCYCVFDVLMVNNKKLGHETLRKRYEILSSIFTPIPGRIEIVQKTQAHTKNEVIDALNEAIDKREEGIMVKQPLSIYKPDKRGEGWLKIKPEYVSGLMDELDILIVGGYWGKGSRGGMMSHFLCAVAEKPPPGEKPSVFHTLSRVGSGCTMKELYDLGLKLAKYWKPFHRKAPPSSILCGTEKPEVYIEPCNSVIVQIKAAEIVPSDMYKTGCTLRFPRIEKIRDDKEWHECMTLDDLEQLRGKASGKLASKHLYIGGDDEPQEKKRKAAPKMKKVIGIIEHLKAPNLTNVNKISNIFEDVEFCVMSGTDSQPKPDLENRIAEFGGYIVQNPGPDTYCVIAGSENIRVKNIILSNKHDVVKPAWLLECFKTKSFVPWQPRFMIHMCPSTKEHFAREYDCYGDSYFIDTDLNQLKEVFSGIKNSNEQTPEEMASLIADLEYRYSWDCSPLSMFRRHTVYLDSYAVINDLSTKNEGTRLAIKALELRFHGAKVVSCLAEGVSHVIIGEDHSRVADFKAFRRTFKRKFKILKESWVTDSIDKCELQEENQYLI
Settings: both partners purified

B1: XRCC4 (natural protein, UniProt Q13426 1-336, looked up)
chain: MERKISRIHLVSEPSITHFLQVSWEKTLESGFVITLTDGHSAWTGTVSESEISQEADDMAMEKGKYVGELRKALLSGAGPADVYTFNFSKESCYFFFEKNLKDVSFRLGSFNLEKVENPAEVIRELICYCLDTIAENQAKNEHLQKENERLLRDWNDVQGRFEKCVSAKEALETDLYKRFILVLNEKKTKIRSLHNKLLNAAQEREKDIKQEGETAICSEMTADRDPVYDESTDEESENQTDLSGLASAAVSKDDSIISSLDVTDIAPSRKRRQRMQRNLGTEPKMAPQENQLQEKENSRPDSSLPETSKKEHISAENMSLETLRNSSPEDLFDEI
notes: also called XRCC4 homodimer
B1 was tested, and the “stoichiometry N” value was < 1 XRCC4 dimer to Ligase IV molar ratio.
